A short description of this data set: soluble on expression in E. coli; label from the status in PepcDB or PDB records.
Turning to “MGSDKIHHHHHHMKVLFRSDSSSQIGFGHIKRDLVLAKQYSDVSFACLPLEGSLIDEIPYPVYELSSESIYELINLIKEEKFELLIIDHYGISVDDEKLIKLETGVKILSFDDEIKPHHCDILLNVNAYAKASDYEGLVPFKCEVRCGFSYALIREEFYQEAKENREKKYDFFICMGGTDIKNLSLQIASELPKTKIISIATSSSNPNLKKLQKFAKLHNNIRLFIDHENIAKLMNESNKLIISASSLVNEALLLKANFKAICYVKNQESTATWLAKKGYEVEYKY”, the “soluble on expression in E. coli” value is on record as “not soluble”.
For “MSTDNLLQPKLIEATLGDYPVIQNMARFYVYDMSRYCGFISEEWTCPPDGLYESYDFKIYFTDPERKAFLIQIDNELAGFALLNKFGIQAVDWSMGEFFILAKFQGKGIGQSVAHQLWRTHPGEWEISVIPENIPALSFWRQAVMTYTLGRYKEQIKTVNYDIHQTQRIILSFNTQKQNKSCHSIPKKPITIDFVDNIPKSLEKKMTEDLIAYERTHGIDVNYKRFSIVLSEEGVTCGVINAFTAFAEIYIDDIWVDKAYRGKGYGKKLLQTLENHFKGQGFNNINLCTSAFQAPEFYRKCGYTAEFTRINQANPKLSKTFFVKFFDDENQTQGLF”, the “soluble on expression in E. coli” value is listed as “soluble”.
With “MGSDKIHHHHHHMAYFMLLMTTPIQATIQQSMALAKAHYENFPVASVLLPKDLRAPVGLVYAFARQADDFADEGELSPEERLALLDGFRSQLDQIKHGATPDTPLFQALQAMIQERDLPLEPFYDLLSAFSQDVVKARYANFGEVIDYCRRSANPVGRLMLHLYKQATPRNVALSDAICTSLQLINFLQDVDVDYRKNRIYLPLDELQKYNITEQQIAGQHSGGTWSLFMEFQVNRTRKLLQSGAPLGLALPGRIGLEMRMIIAGGERILKKLHHVRGDVFNQRPTLKPTDWAYMLYRAVRKK”, the “soluble on expression in E. coli” value is given as “not soluble”.
Consider “MASGASATQRIPSKRQTLDEAYAPPANFLEIEVINPITHGVGKMRYTDYEIRMRSNLPVFKQKESSVRRRYSDFEWVRAELERDSKIVVPTLPGKSFKRQLPFRSDDGIFEEEFIENRRKALELFINKVAGHPLAQNERSLHIFLQEPTIDKNYVPGKIRTA”, for which the “soluble on expression in E. coli” value is on record as “soluble”.
The entry for “MLEIDNQTPLESDFLLLEKIANVLAPTQIIELVLVSDETIREINKDLRGCDYATDVLSFPLEAIPHTPLGSVVINAPLAQTNALKLGHSLENEIALLFIHGVLHLLGYDHEKDKGEQRQKESELIKAFNLPLSLIERTQDLEHHHHHH” is “not soluble”.
The entry for “MCQFIETIRIEDGQVYNLSYHTARMNRTRAAFWKEAAPIDLSGFISPPSLSGIWKCRIVYDKEIEEVGYTPYQMRMVSSLRPVASDTIDYSYKSTNREELNDLFARRGKADDILIVKDGYLTDTSIANIALYDGHTWYTPAHPLLQGTKRAELLDNRFIVEKDIRQAQLGDYSHIMLFNAMIDWKRLIIPVNEKYFIL” is “not soluble”; for “MGSDKIHHHHHHMANPQSPHATLQLPQGMEITAEIKPGYDAILTREALELVAALHRTFEPRRQQLLQARAERTKRLDAGERPDFLAETKSVREGDWKIAPLPQDLQCRRVEITGPVERKMIINALNSGADSYMTDFEDSNAPSWDNQITGHINLKDAVRRTISLEQNGKSYALNDKVATLIVRPRGWHLDEKHVKVDGKRVSGSIFDFALFMVHNAKELLARGSGPYFYLPKMESHLEARLWNDIFVAAQEAVGVPRGTIRATVLIETILAAFEMDEILYELREHSSGLNAGRWDYIFSAIKKFKSDRDFCLADRSQITMTSPFMRAYALLLLKTCHRRNAPAIGGMSALIPIRNDPAANDKAMAGVRSDKARDAGDGYDGGWVAHPGLVAIAMEEFVKVLGDKPNQIGKQRDDVLVTATDLLDFRPETPITENGLRNNINVGIHYLGAWLTGNGCVPIHNLMEDAATAEISRSQVWQWIRSPKGKLDDGRKVTAELVRAMSAQELDKVKQAVGGDTKPYERAAQIFEEMSTSEQFTDFLTLPLYEEI” it is “not soluble”.
“GSHMKNPYSNQIEREELILKYLPLVKAIATNIKKHLPEDVDIRDLISYGVIGLIKAVDNLSTENPKRAEAYIKLRIKGAIYDYLRSLDFGSRQVREKERRIKEVVEKLKEKLGREPTDEEVAKELGISTEELFKTLDKINFSYILSLEEVFRDFARDYSELIPSSTNVEEEVIKRELTEKVKEAVSKLPEREKLVIQLIFYEELPAKEVAKILETSVSRVSQLKAKALERLREMLSNPL”: the “soluble on expression in E. coli” value is “soluble”.
On to “MSITLSDSAAARVNTFLANRGKGFGLRLGVRTSGCSGMAYVLEFVDEPTPEDIVFEDKGVKVVVDGKSLQFLDGTQLDFVKEGLNEGFKFTNPNVKDECGCGESFKLAAALDHHHHHH”, for which the “soluble on expression in E. coli” value is reported as “soluble”.

The record behind these values is the DeepSol protein solubility set.
